Assay results reported in patent US20240100162A1 (published 2024).

Legend:
Test in all cases: killing
[1] = target: T1, MAGE-B2 peptide, G5P peptide on HLA-A*02:01 (human)
T1 peptide: GVYDPEEHSV

[2] = target: T2, MAGE-B2 peptide, E6N peptide on HLA-A*02:01 (human)
T2 peptide: GVYDGNEHSV

[3] = target: T3, MAGE-B2 peptide, G1M peptide on HLA-A*02:01 (human)
T3 peptide: MVYDGEEHSV

[4] = target: T4, MAGE-B2 peptide, G5L peptide on HLA-A*02:01 (human)
T4 peptide: GVYDLEEHSV

[5] = target: T5, MAGE-B2 peptide, G1Q peptide on HLA-A*02:01 (human)
T5 peptide: QVYDGEEHSV

[6] = target: T6, MAGE-B2 peptide, G1W peptide on HLA-A*02:01 (human)
T6 peptide: WVYDGEEHSV

[7] = target: T7, MAGE-B2 peptide, G5M peptide on HLA-A*02:01 (human)
T7 peptide: GVYDMEEHSV

[8] = target: T8, MAGE-B2 peptide, G5R peptide on HLA-A*02:01 (human)
T8 peptide: GVYDREEHSV

[9] = target: T9, MAGE-B2 peptide, G1N peptide on HLA-A*02:01 (human)
T9 peptide: NVYDGEEHSV

[10] = target: T10, MAGE-B2 peptide, V2A peptide on HLA-A*02:01 (human)
T10 peptide: GAYDGEEHSV

[11] = target: T11, MAGE-B2 peptide, G1L peptide on HLA-A*02:01 (human)
T11 peptide: LVYDGEEHSV

[12] = target: T12, MAGE-B2 peptide, G1E peptide on HLA-A*02:01 (human)
T12 peptide: EVYDGEEHSV

[13] = target: T13, MAGE-B2 peptide, D4E peptide on HLA-A*02:01 (human)
T13 peptide: GVYEGEEHSV

[14] = target: T14, MAGE-B2 peptide, G5C peptide on HLA-A*02:01 (human)
T14 peptide: GVYDCEEHSV

[15] = target: T15, MAGE-B2 peptide, G1C peptide on HLA-A*02:01 (human)
T15 peptide: CVYDGEEHSV

[16] = target: T16, MAGE-B2 peptide, G1I peptide on HLA-A*02:01 (human)
T16 peptide: IVYDGEEHSV

[17] = target: T17, MAGE-B2 peptide, V2C peptide on HLA-A*02:01 (human)
T17 peptide: GCYDGEEHSV

[18] = target: T18, MAGE-B2 peptide, G1H peptide on HLA-A*02:01 (human)
T18 peptide: HVYDGEEHSV

[19] = target: T19, MAGE-B2 peptide, D4W peptide on HLA-A*02:01 (human)
T19 peptide: GVYWGEEHSV

[20] = target: T20, MAGE-B2 peptide, G1V peptide on HLA-A*02:01 (human)
T20 peptide: VVYDGEEHSV

[21] = target: T21, MAGE-B2 peptide, G1D peptide on HLA-A*02:01 (human)
T21 peptide: DVYDGEEHSV

[22] = target: T22, MAGE-B2 peptide, V2S peptide on HLA-A*02:01 (human)
T22 peptide: GSYDGEEHSV

[23] = target: T23, MAGE-B2 peptide, G1P peptide on HLA-A*02:01 (human)
T23 peptide: PVYDGEEHSV

[24] = target: T24, MAGE-B2 peptide, G1T peptide on HLA-A*02:01 (human)
T24 peptide: TVYDGEEHSV

[25] = target: T25, MAGE-B2 peptide, V10F peptide on HLA-A*02:01 (human)
T25 peptide: GVYDGEEHSF

[26] = target: T26, MAGE-B2 peptide, V2G peptide on HLA-A*02:01 (human)
T26 peptide: GGYDGEEHSV

[27] = target: T27, MAGE-B2 peptide, G1S peptide on HLA-A*02:01 (human)
T27 peptide: SVYDGEEHSV

[28] = target: T28, MAGE-B2 peptide, V10M peptide on HLA-A*02:01 (human)
T28 peptide: GVYDGEEHSM

[29] = target: T29, MAGE-B2 peptide, E6K peptide on HLA-A*02:01 (human)
T29 peptide: GVYDGKEHSV

[30] = target: T30, MAGE-B2 peptide, E6F peptide on HLA-A*02:01 (human)
T30 peptide: GVYDGFEHSV

[31] = target: T31, MAGE-B2 peptide, E6P peptide on HLA-A*02:01 (human)
T31 peptide: GVYDGPEHSV

[32] = target: T32, MAGE-B2 peptide, E6Y peptide on HLA-A*02:01 (human)
T32 peptide: GVYDGYEHSV

[33] = target: T33, MAGE-B2 peptide, G5A peptide on HLA-A*02:01 (human)
T33 peptide: GVYDAEEHSV

[34] = target: T34, MAGE-B2 peptide, E6L peptide on HLA-A*02:01 (human)
T34 peptide: GVYDGLEHSV

[35] = target: T35, MAGE-B2 peptide, E6A peptide on HLA-A*02:01 (human)
T35 peptide: GVYDGAEHSV

[36] = target: T36, MAGE-B2 peptide, E7R peptide on HLA-A*02:01 (human)
T36 peptide: GVYDGERHSV

[37] = target: T37, MAGE-B2 peptide, E6I peptide on HLA-A*02:01 (human)
T37 peptide: GVYDGIEHSV

[38] = target: T38, MAGE-B2 peptide, E7G peptide on HLA-A*02:01 (human)
T38 peptide: GVYDGEGHSV

[39] = target: T39, MAGE-B2 peptide, V10Y peptide on HLA-A*02:01 (human)
T39 peptide: GVYDGEEHSY

Measured: binding result

B1: TCR2 (TCR, V domains shown)
Valpha: QKEVEQNSGPLSVPEGAIASLNCTYSDRGSQSFFWYRQYSGKSPELIMSIYSNGDKEDGRFTAQLNKASQYVSLLIRDSQPSDSATYLCAVNIPFSNSGGYQKVTFGTGTKLQVIP
Vbeta: NAGVTQTPKFRVLKTGQSMTLLCAQDMNHEYMYWYRQDPGMGLRLIHYSVGEGTTAKGEVPDGYNVSRLKKQNFLLGLESAAPSQTSVYFCASRHPGQYNQPQHFGDGTRLSIL
recognises: [1] | [2]

B2: TCR1 (TCR, V domains shown)
Valpha: KQEVTQIPAALSVPEGENLVLNCSFTDSAIYNLQWFRQDPGKGLTSLLLIQSSQREQTSGRLNASLDKSSGRSTLYIAASQPGDSATYLCAAMKTSYDKVIFGPGTSLSVIP
Vbeta: GEEVAQTPKHLVRGEGQKAKLYCAPIKGHSYVFWYQQVLKNEFKFLISFQNENVFDETGMPKERFSAKCLPNSPCSLEIQATKLEDSAVYFCASSQGQGGYGYTFGSGTRLTVV
not listed: [1] | [2] | [29] | [30] | [31] | [32] | [33] | [34] | [35] | [36] | [37] | [38] | [39]
recognises: all other assays above

B3: TCR3 (TCR, V domains shown)
Valpha: AQKVTQAQTEISVVEKEDVTLDCVYETRDTTYYLFWYKQPPSGELVFLIRRNSFDEQNEISGRYSWNFQKSTSSFNFTITASQVVDSAVYFCALSVLRMDSSYKLIFGSGTRLLVRP
Vbeta: NAGVTQTPKFRVLKTGQSMTLLCAQDMNHEYMYWYRQDPGMGLRLIHYSVGEGTTAKGEVPDGYNVSRLKKQNFLLGLESAAPSQTSVYFCASSLQGAGQPQHFGDGTRLSIL
recognises: [29] | [30] | [31] | [32] | [33] | [34] | [35] | [36] | [37] | [38] | [39]
